Measured values reported in publication PMC4446437 (Nucleic Acids Research, 2015).

Molecular target: T1, His-tagged Set7 (human, UniProt Q8WTS6 1-366)
T1 sequence (looked up): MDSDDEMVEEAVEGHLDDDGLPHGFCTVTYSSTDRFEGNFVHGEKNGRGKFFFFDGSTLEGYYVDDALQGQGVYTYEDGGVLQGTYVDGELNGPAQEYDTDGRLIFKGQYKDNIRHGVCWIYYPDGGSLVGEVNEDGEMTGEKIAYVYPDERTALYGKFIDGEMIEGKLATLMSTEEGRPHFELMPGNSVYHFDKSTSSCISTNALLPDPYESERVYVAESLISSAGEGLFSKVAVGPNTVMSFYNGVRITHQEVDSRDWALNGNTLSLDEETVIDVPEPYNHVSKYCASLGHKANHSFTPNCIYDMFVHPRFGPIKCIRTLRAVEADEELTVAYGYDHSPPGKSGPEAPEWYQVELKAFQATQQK
Assay: pull-down

B1: GST-HIF-1α-(amino acids 576–785) (domain or fragment, human, UniProt Q16665 576-785, looked up)
chain: SFDQLSPLESSSASPESASPQSTVTVFQQTQIQEPTANATTTTATTDELKTVTKDRMEDIKILIASPSPTHIHKETTSATSSPYRDTQSRTASPNRAGKGVIEQTEKSHPRSPNVLSVALSQRTTVPEEELNPKILALQNAQRKRKMEHDGSLFQAVGIGTLLQQPDDHAATTSLSWKRVKGCKSSEQNGMEQKTIILIPSDLACRLLGQ
B1: binds.
